# Results published in article PMC8170004 (iScience, 2021).
# T1: Human GDF8, biotinylated (human, UniProt O14793 267-375, biotin (Biotin Labeling Kit-NH2))
# T1 sequence: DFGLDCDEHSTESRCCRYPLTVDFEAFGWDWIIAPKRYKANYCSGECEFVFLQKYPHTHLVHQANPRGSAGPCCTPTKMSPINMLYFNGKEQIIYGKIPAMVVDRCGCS
# T2: Human GDF11, biotinylated (human, UniProt O95390 299-407, biotin (Biotin Labeling Kit-NH2))
# T2 sequence: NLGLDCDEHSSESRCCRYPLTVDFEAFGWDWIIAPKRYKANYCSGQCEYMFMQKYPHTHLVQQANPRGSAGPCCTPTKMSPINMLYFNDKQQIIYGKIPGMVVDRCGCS
# B1: Bivalent Human FSTL3-Fc (Fc fusion)
# chain: MGSGNPAPGGVCWLQQGQEATCSLVLQTDVTRAECCASGNIDTAWSNLTHPGNKINLLGFLGLVHCLPCKDSCDGVECGPGKACRMLGGRPRCECAPDCSGLPARLQVCGSDGATYRDECELRAARCRGHPDLSVMYRGRCRKSCEHVVCPRPQSCVVDQTGSAHCVVCRAAPCPVPSSPGQELCGNNNVTYISSCHMRQATCFLGRSIGVRHAGSCAGTPEEPPGGESAEEEENFV
# Columns and labels:
# Human GDF8, biotinylated = target: T1, Human GDF8, biotinylated; assay: ELISA
# [1] = target: T2, Human GDF11, biotinylated; assay: ELISA
binder,measurement,setting,value
B1,binding result,"Human GDF8, biotinylated",binds
same,binding result,[1],binds
